Measured values published in patent publication US10365283B2, “Activated HER3 as a marker for predicting therapeutic efficacy” (U3 PHARMA GMBH, priority 2006, dated 2019).

Target: T1, pHer3 in BxPC3 and Calu-3 xenografts (Homo sapiens, UniProt P21860)
T1 construct: on FFPE sections of BxPC3 xenografts; endogenous in cells; host or cells: BxPC3 (pancreas cancer) and Calu-3 (NSCLC) human tumour cells grown as xenografts in mice
Experiment: Immunohistochemical staining with anti-pHer3 antibody 21D3 on FFPE sections of xenograft tumours after antibody administration
Format: in vivo
Settings: FIGS. 7, 8 and 11, versus control IgG1
Procedure: FIG. 7: Immunohistochemical staining with rabbit monoclonal anti-p Her3 antibody (Cell Signalling 21D3, Lot 4 1:650 dilution, 0.074 ug/ml) on FFPE sections of BxPC3 xenografts, 20×. • (A) and (B) Tumour after administration of control IgG1 500 μg/mouse • (C) and (D) Tumour after administration of antibody U3-1287 500 μg/mouse • Stainings were done in duplicate on three independent xenografts.
FIG. 8: Immunohistochemical staining with rabbit monoclonal anti-pHer3 antibody (Cell Signalling 21D3, Lot 4 1:650 dilution, 0.074 ug/ml) on FFPE sections of BxPC3 xenografts, 20×. • (A) Tumour after administration of antibody U3-1287 25 μg/mouse • (B) Tumour after administration of antibody […] 100 μg/mouse • (C) Tumour after administration of antibody U3-1287 200 μg/mouse • (D) Tumour after administration of antibody U3-1287 500 μg/mouse • (E) Tumour after administration of control IgG1 500 μg/mouse. • Stainings were done in duplicate on three independent xenografts.
FIG. 11: Immunohistochemical staining with rabbit monoclonal anti pHer3 antibody (Cell Signalling 21D3, Lot 4 1:8000 dilution, 0.006 ug/ml) on FFPE sections Calu-3 xenografts, 40×. • (A) and (B) Tumour after administration of control IgG1 25 mg/kg 72 h • (C) and (D) Tumour after administration of antibody U3-1287 25 mg/kg 72 h • Stainings were done in duplicate on five independent xenografts.
Using a microtome, 2-4 μm thin sections were cut, mounted on silanized glass slides and dried at 60° C. for 30 minutes and at 38° C. overnight. Deparaffinisation and rehydration of the specimen was achieved by incubating 2×5 minutes in Xylol, 2×2 minutes in 100% ethanol and 2 minutes each in 96%, 80% and 70% ethanol. After rinsing 20 seconds in distilled water, the slides were incubated for two minutes in PBS. […]
The anti-tumor efficacy of a HER modulator were evaluated in human xenograft tumor studies. In these studies, human tumors were grown as xenografts in immunocompromised mice and therapeutic efficacy was measured by the degree of tumor growth inhibition in response to administrations of the HER modulator. […]

- membrane staining intensity (pHer3): reduction
- pHer3 positive cells compared to whole cell number in the tumour: reduction
- tumour cells compared to whole cell number in the tumour: reduction
Substance: anti-HER3 antibody: anti-HER3 antibody U3-1287 administered to mice bearing BxPC3 or Calu-3 xenografts
